For one experiment, the target named is T1, human BCMA-Fc/His (1-51) (human, UniProt Q02223 1-51).
T1 construct: also called recombinant human BCMA-Fc/His; recombinant human BCMA-His (Sino Biological Inc.); not shown: Fc region; C-terminal His tag
T1 sequence: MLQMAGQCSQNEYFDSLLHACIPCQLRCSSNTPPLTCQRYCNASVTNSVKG
Nature of the experiment: BLI (Octet), antigen on Ni-NTA biosensor, IgG in solution. The method, then: A 96-well black microplate was mounted on a Biosensor tray case, 200 μl of 1XKB was added to each of the 8 wells, and then 8 Ni-NTA biosensors (Fortebio) were inserted thereto for hydration for 10 minutes. For antigen fixation, 5 μg/ml of recombinant human BCMA-His (Sino Biological Inc.) was diluted using 1XKB. Experiments were performed with a threshold of 0.5 to 1.0 nm, and Octet Data Acquisition 9.0 software was activated to create an Octet program template. The first step was for Baseline 1, the second step was for loading, and the threshold was fixed to 0.5 to 1.0 nm. In the third step, which was for Baseline 2, association for 5 minutes and dissociation for 20 minutes were performed. A plate temperature was fixed to 30° C., and the prepared buffer solution was placed in order into a new 96-well black microplate according to the Octet program template. 200 μl of 1XKB used as Baseline 1 and recombinant human BCMA-Fc/His which is an antigen to be loaded were diluted to 5 μg/ml, and 200 μl of the dilution was added thereto. After adding 200 μl of 1XKB used as Baseline 2, 200 μl of the antibody to be reacted with the antigen was dispensed, and the instrument was operated. After completion of the experiment, an association constant (kon), a dissociation constant (kdis), and an equilibrium dissociation constant (KD) for each antibody were analyzed and calculated with Octet Analysis 9.0 software.

The target of experiment [1] is T2, rat BCMA (1-49) fused to the Fc region of human IgG1 (rat; human).
T2 construct: Sino Biological Inc. 80156-R01H; also called 80156-R01H; not shown: Fc region of human IgG1
T2 chain: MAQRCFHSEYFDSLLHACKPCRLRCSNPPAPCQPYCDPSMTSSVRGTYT
The experiment is described as follows: ELISA on 100 ng coated rat BCMA, antibody titrated, anti-human Fab HRP, absorbance 450 nm. Here is the method: (§1) 100 ng of human, monkey, mouse, and rat BCMA antigens prepared in Example 1.1 were coated on the bottom of the plate, and then coated with 3% BSA to block nonspecific binding. Using the selected anti-BCMA IgG antibodies as primary antibodies, and the anti-human Fab HRP (1:20000 dilution) as a secondary antibody, ELISA assay was performed as described in Example 1.3.
(§2) Absorbancies at 450 nm measured with a microplate reader are shown in FIG. 3, and half maximal effective concentrations (EC₅₀) (nM) are shown in Table 9.
(ELISA stands for enzyme-linked immunosorbent assay.)

The target in experiment [2] is T3, monkey (Rhesus) BCMA (1-53) fused to the Fc region of human IgG1 (monkey (Rhesus); human, UniProt Q02223 1-54).
T3 construct: Sino Biological Inc. 90103-C02H; also called monkey BCMA; Monkey BCMA (1-53); not shown: Fc region of human IgG1
The experiment is described as follows: BLI (Octet), monkey BCMA. For orientation: In BLI a coated tip is dipped into the sample, and binding shifts an interference pattern.

Experiment [3] has as its target T4, human BCMA expressed on cell surface (H929, OPM-2, CHOK1-hBCMA cells) (human, UniProt Q02223 1-184).
T4 construct: also called cell-surface BCMA; BCMA on cell surface
T4 sequence: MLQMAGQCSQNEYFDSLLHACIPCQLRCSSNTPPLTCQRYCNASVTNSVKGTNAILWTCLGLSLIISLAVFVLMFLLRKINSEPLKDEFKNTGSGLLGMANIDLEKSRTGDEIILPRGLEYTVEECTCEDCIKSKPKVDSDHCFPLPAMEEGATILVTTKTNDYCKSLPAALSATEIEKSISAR
The experiment is described as follows: FACS on OPM-2 cells, 10 µg/ml antibody, anti-human Fc-FITC; open histogram shifted right of the filled control. Here is the method:
Multiple myeloma cancer cells H929 (ATCC, CRL9068™) and OPM-2 cell line (DSMZ, ACC 50), which are known to express BCMA, were prepared, and human BCMA-overexpressed CHOK1-hBCMA cell line (constructed by ABIBio) were prepared.
10 μg/ml of the seven IgG antibodies (B58, 5A6, 5D5, 5B5, 1H, 2G, and 5G) purified in Example 1.4 was added to the prepared cells, incubated at 4° C. for 1 hour, and then washed two times with a PBS buffer solution. The anti-human Fc-FITC was diluted in 1:400, incubated at 4° C. for 1 hour, and then washed with a PBS buffer solution. These processes were repeated. In FIGS. 2A and 2B, MFI indicates mean fluorescence intensity.

Experiment [4] deals with T3, monkey (Rhesus) BCMA (1-53) fused to …. The experiment is described as follows: ELISA on 100 ng coated rhesus BCMA, antibody titrated, anti-human Fab HRP, absorbance 450 nm. Here is the method: as §1, §2
The target in experiment [5] is T5, recombinant human BCMA (ELISA antigen, construct not specified) (human, UniProt Q02223 1-54).
T5 construct: Fc 1-51; Fc/His 1-51; Fc 4-48) was coated in these ELISAs; also called recombinant BCMA; recombinant protein
T5 sequence: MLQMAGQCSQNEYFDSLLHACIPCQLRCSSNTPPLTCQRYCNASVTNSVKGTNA
Nature of the experiment: ELISA on 100 ng coated human BCMA, antibody titrated, anti-human Fab HRP, absorbance 450 nm. Here is the method:
as §1, §2

The target in experiment [6] is T4, human BCMA expressed on cell surface …. Nature of the experiment: FACS on H929 cells.
Experiment [7] has as its target T5, recombinant human BCMA (ELISA antigen, …). Nature of the experiment: ELISA on recombinant BCMA.
Experiment [8] addresses T3, monkey (Rhesus) BCMA (1-53) fused to …. The experiment is described as follows: ELISA, 100 ng coated antigen. The method, then:
as §1, §2

Experiment [9] concerns the target T5, recombinant human BCMA (ELISA antigen, …). Nature of the experiment: ELISA, 100 ng coated antigen. Here is the method: as §1, §2

Consider two molecules from patent US20210284749A1 (ABL BIO, published 2021).

Usually Kd stands for the constant that tells how readily two partners part at equilibrium. As a reminder, the koff is a measure of how fast the partners let go of each other. In general, kon refers to a measure of how fast the partners come together. One may read the EC50 (read off the curve) as the midpoint of the concentration-response curve. In general, EC50 refers to the concentration at which the effect is half-maximal.

Several values for one entry are separate records, joined by “and”; a condition that tells them apart may be missing. Equal entries are not always repeated.

B1: anti-BCMA IgG antibody 5A6 (antibody, V domains shown)
VH: EVQLLESGGGLVQPGGSLRLSCAASGFTFSNYGVHWVRQAPGKGLEWVSYISYSGGTYYNPSLKSRFTISRDNSKNTLYLQMNSLRAEDTAVYYCARDSDDFGFDYWGQGTLVTVSS
VL: QSVLTQPPSASGTPGQRVTISCQGDSLRSYYVNWYQQLPGTAPKLLIYDHSKRPTGVPDRFSGSKSGTSASLAISGLRSEDEADYYCQSYDSSTVVFGGGTKLTVLG
notes: also called 5A6 WT; 5A6 antibody
Take B1: the Kd is 21.2 pM in the experiment with human BCMA-Fc/His (1-51) and 4510 pM in experiment [2]. The koff was 1.08e-05 s⁻¹ with human BCMA-Fc/His (1-51) and 0.00163 s⁻¹ in experiment [2]. Also, the kon in the experiment with human BCMA-Fc/His (1-51) was determined as 509000 M⁻¹ s⁻¹; in experiment [2], 361000 M⁻¹ s⁻¹. Also, the binding result in experiment [1] was “no binding (tested: about 30 µg/ml)”. For the same molecule, the results for the MFI in experiment [3] and in experiment [6] were 54.7 and 68.2, respectively. The “EC50 (read off the curve)” value in [4] and in experiment [5] was around 0.02 µg/mL throughout. Moreover, the EC50 in experiment [7] was 63.1 pM and 64.3 pM and 77 pM; in experiment [8] it was 153000 pM; in experiment [9], 100000 pM.

B2: anti-BCMA IgG antibody 5D5 (antibody, V domains shown)
VH: EVQLLESGGGLVQPGGSLRLSCAASGFTFSDYGLSWVRQAPGKGLEWVSLIDSSGSSTFYADSVKGRFTISRDNSKNTLYLQMNSLRAEDTAVYYCAKEHGLFDSWGQGTLVTVSS
VL: EIVLTQSPGTLSLSPGERATLSCKASQDIDDDINWYQQKPGQAPRLLIYDASLRATGIPDRFSGSGSGTDFTLTISRLEPEDFAVYYCQQSLRTPITFGQGTKLEIKR
notes: also called 5D5 WT; 5D5 antibody
For the molecule B2, the results for the Kd (in the experiment with human BCMA-Fc/His (1-51); in experiment [2]) were 114 pM and 346 pM, respectively. The dissociation rate constant (koff) in the experiment with human BCMA-Fc/His (1-51) was determined as 0.000105 s⁻¹; in [2], 0.000585 s⁻¹. In addition, the kon was 919000 M⁻¹ s⁻¹ with human BCMA-Fc/His (1-51) and 1.69e+06 M⁻¹ s⁻¹ in experiment [2]. For the same molecule, the “EC50 (read off the curve)” value is around 0.02 µg/mL in experiment [1], around 0.01 µg/mL in experiment [4] and around 0.01 µg/mL in experiment [5]. In addition, the MFI in [3] stood at 21.8; in [6] it was 36.4. In addition, the EC50 in experiment [7] was 70.8 pM and 65.2 pM; in experiment [8] it was 94000 pM; in experiment [9], 140000 pM.
